Data taken from the DeepSol protein solubility set.

Experiment: soluble on expression in E. coli; label from the status in PepcDB or PDB records

Soluble on expression in E. coli, soluble:
MAHHHHHHMDATELKNKGNEEFSAGRYVEAVNYFSKAIQLDEQNSVLYSNRSACFAAMQKYKDALDDADKCISIKPNWAKGYVRRGAALHGMRRYDDAIAAYEKGLKVDPSNSGCAQGVKDVQVAKAREARDPIARVFTPEAFRKIQENPKLSLLMLQPDYVKMVDTVIRDPSQGRLYMEDQRFALTLMYLSGMKIPNDGDGEEEERPSAKAAETAKPKEEKPLTDNEKEALALKEEGNKLYLSKKFEEALTKYQEAQVKDPNNTLYILNVSAVYFEQGDYDKCIAECEHGIEHGRENHCDYTIIAKLMTRNALCLQRQRKYEAAIDLYKRALVEWRNPDTLKKLTECEKEHQKAVEEAYIDPEIAKQKKDEGNQYFKEDKFPEAVAAYTEAIKRNPAEHTSYSNRAAAYIKLGAFNDALKDAEKCIELKPDFVKGYARKGHAYFWTKQYNRALQAYDEGLKVDPSNADCKDGRYRTIMKIQEMASGQSADGDEAARRAMDDPEIAAIMQDSYMQLVLKEMQNDPTRIQEYMKDSGISSKINKLISAGIIRFGQ
SDVNECLTIPEACKGEMKCINHYGGYLCLPRSAAVINDLHGEGPPPPVPPAQHPNPCPPGYEPDDQDSCVD
MTHRPAPDDMAELIYTSGTTGNPKGVILTHRNLVANILQVNRHIPVVTPDFSFLSLLPLSHMFEQMGGFFTPLYRGAAIVYIRTLKPSAIMEALGEEDIYAIIAVPRLLQLLKGSVERELEAKGLGSIFRWLLKVGERMSRGGRSVLFRPIQRKFGRNFALFVSGGAPLDPEVFRFWNGLGFRVVEGYGLTECSPVLTANTMERQVMGSVGLEHHHHHH
MSYQGRARKFLESASIDVGDMVLVEKPDVTYEGMVLDRADDADDRHIVLKLENGYNIGVEISDARIELLEKGSEPRIELPPVEAAEDPELPDVSIISTGGTVASIIDYRTGAVHPAFTADDLLRANPELLDIANIRGRAVFNILSENMKPEYWVETARAVYGEIKDGADGVVVAHGTDTMHYTSAALSFMLRTPVPVVFTGAQRSSDRPSSDASLNIQCSVRAATSEIAEVTVCMHATMDDLSCHLHRGVKVRKMHTSRRDTFRSMNALPLAEVTPDGIKILEENYRKRGSDELELSDRVEERVAFIKSYPGISPDIIKWHLDEGYRGIVIEGTGLGHCPDTLIPVIGEAHDMGVPVAMTSQCLNGRVNMNVYSTGRRLLQAGVIPCDDMLPEVAYVKMCWVLGQTDDPEMAREMMRENIAGEINERTSIAYFRG

Soluble on expression in E. coli, not soluble:
MGSDKIHHHHHHMTETWNFINTGSKDPYYNMAMDEALLNFVSRGEIDPVIRFYTWNPATLSIGYFQRLQKEIDIDKVKEKGFGLVRRQTGGRGVLHDKELTYSVIVPESHPNMPSTVTEAYRVISQGLLEGFKNLGFNTYFAVPKTPEERQKLKQPRSSVCFDAPSWYELVVEGRKIAGSAQTRQKGVILQHGSILQDIDIDELFDMFIYKNERLKLKMKEAFVEKAVAINDISDKHITISQMEEAFEKGFKKGLNIELKPLELTEAQLAEVEELTEKYRSDEWMFRK
MFDPKQFDELANKLFATLPTSLQNFEKDIQQKFKEVLQSTFSRMDLVTREEFDVQCKVLARTREKLEQLQHQLEDFIKRQEVKNNK
MKVLIGGYTKKTSKGIYELPFIGEDNEAHLEKAENIISVGGPTYFQKDGDLVFTINNAGDEGGISAFKLSDHGSNEIDRHLTPGASPAYIGINKEKKLLYTANYHTAVLSVFQYSNSGKLALVAQTTHKAESLGPRPEQVDGPHPHFFDETPAGNLVSCDLGNDTVDFYRLENNELKHLAQYKNEAGFGDRHIVFSKDGNYFYVVGELSSQINVVKFNENTWEFEDIATYKTIPEDFTEHNGAAALYITNDGKYIYNSNRGHNSITVFKVNDDHTLSLIQRISTFGDFPRDFNWDETQKYVVAANQNTDNATLYLRNGGNGTLTPIQTEIPVPEGTRVLFTKLEHHHHHH
MSTRPTTDKVKEAIFNMIGPYFSGGNGLDLFAGSGGLGIEALSRGIERVIFVDHDRKAVQTVRKNVAACGLEKRAEIYCNDAERALKAVAKRGLRFAVIFLDPPYKEKQWPTLLSSIVERQLLEPHGVVVAEHSAEAELPEEVGGLTRWKRETYGITGVTIYRWEGDGSDGEHCGLPREL
MGSDKIHHHHHHMGSSGMGVDANGKPIKRQPTTNNNNKKAGNNSNNQKKGNNQNNKNNKNQNGGNRNQNRQHHQPPMMQMVPPFGPMGPGGPGGPGFMGPPNGNMNFFNGQNRRNGSGKDTMDHRLTMWDKELLEIT
